Sequences and labels used below:
B1: scFv; the commonest letter at each place (parent)
chain 1: EVKLDETGGGLVQPGRPMKLSCVASGFTFSDYWMNWVRQSPEKGLEWVAQIRNKPYNYETYYSDSVKGRFTISRDDSKSSVYLQMNNLRVEDMGIYYCTGSYYGMDYWGQGTSVTVS
chain 2: DVVMTQTPLSLPVSLGDQASISCRSSQSLVHSNGNTYLRWYLQKPGQSPKVLIYKVSNRFSGVPDRFSGSGSGTDFTLKISRVEAEDLGVYFCSQSTHVPWTFGGGTKLEIK

The variants in the series “fluorescein” derive from B1. The series is described as follows: Kd (Tite-Seq). To be noted: with fluorescein; format: scFv 4-4-20, heavy + light.
Series [1] covers variants of B1. The series is described as follows: yeast surface expression (ratio to wild type); higher = more expressed. Particulars: format: scFv 4-4-20, heavy + light.

For chain 1 EVKLDETGGGLVQPGRPMKLSCVASGFTISDYHMNWVRQSPEKGLEWVAQIRNKPYNYETYYSDSVKGRFTISRDDSKSSVYLQMNNLRVEDMGIYYCTGSYYGMDYWGQGTSVTVS chain 2 DVVMTQTPLSLPVSLGDQASISCRSSQSLVHSNGNTYLRWYLQKPGQSPKVLIYKVSNRFSGVPDRFSGSGSGTDFTLKISRVEAEDLGVYFCSQSTHVPWTFGGGTKLEIK [chain 1 F29I W33H], the Kd (usually a measure of binding affinity in units of concentration) with fluorescein was not below 10 µM. Moreover, in series [1], the yeast surface expression was found to be 0.763.

On to chain 1 EVKLDETGGGLVQPGRPMKLSCVASGFTFSDYWMNWVRQSPEKGLEWVAQIRNKPYNYETYYSDSVKGRFTISRDDSKSSVYLQMNNLRVEDMGIYYCTGSVYGQDYWGQGTSVTVS chain 2 DVVMTQTPLSLPVSLGDQASISCRSSQSLVHSNGNTYLRWYLQKPGQSPKVLIYKVSNRFSGVPDRFSGSGSGTDFTLKISRVEAEDLGVYFCSQSTHVPWTFGGGTKLEIK [chain 1 Y102V M105Q], for which the Kd with fluorescein came out at 1.63 µM. In series [1], the yeast surface expression worked out at 0.736.

For the variant chain 1 EVKLDETGGGLVQPGRPMKLSCVASGFTFSDYWPNWTRQSPEKGLEWVAQIRNKPYNYETYYSDSVKGRFTISRDDSKSSVYLQMNNLRVEDMGIYYCTGSYYGMDYWGQGTSVTVS chain 2 DVVMTQTPLSLPVSLGDQASISCRSSQSLVHSNGNTYLRWYLQKPGQSPKVLIYKVSNRFSGVPDRFSGSGSGTDFTLKISRVEAEDLGVYFCSQSTHVPWTFGGGTKLEIK [chain 1 M34P V37T], in the series with fluorescein, the Kd was not below 10 µM. Moreover, in series [1], the yeast surface expression turned out to be 0.323.

On to chain 1 EVKLDETGGGLVQPGRPMKLSCVASGFTFSDYWMNWVRQSPEKGLEWVAQIRNKPYNYETYYSDSVKGRFTISRDDSKSSVYLQMNNLRVEDMGIYYCTFSYYGMDYWKQGTSVTVS chain 2 DVVMTQTPLSLPVSLGDQASISCRSSQSLVHSNGNTYLRWYLQKPGQSPKVLIYKVSNRFSGVPDRFSGSGSGTDFTLKISRVEAEDLGVYFCSQSTHVPWTFGGGTKLEIK [chain 1 G100F G109K], for which, in the series with fluorescein, the dissociation constant (Kd) is not below 10 µM. For the same variant, in series [1], the yeast surface expression is 0.265.

In the case of chain 1 EVKLDETGGGLVQPGRPMKLSCVASGFTFSDYNMNWVRQSPEKGLEWVAQIRNKPYNYETYYSDSVKGRFTISRDDSKSSVYLQMNNLRVEDMGIYYCTGSYYGMDYWGQGTSVTVS chain 2 DVVMTQTPLSLPVSLGDQASISCRSSQSLVHSNGNTYLRWYLQKPGQSPKVLIYKVSNRFSGVPDRFSGSGSGTDFTLKISRVEAEDLGVYFCSQSTHVPWTFGGGTKLEIK [chain 1 W33N], the Kd with fluorescein is not below 10 µM. Further, in series [1], the yeast surface expression was 1.01.

Turning to chain 1 EVKLDETGGGLVQPGRPMKLSCVASGFTFSDYWMNWVRQSPEKGLEWVAQIRNKPYNYETYYSDSVKGRFTISRDDSKSSVYLQMNNLRVEDMGIYYCTKSYYGMDVWGQGTSVTVS chain 2 DVVMTQTPLSLPVSLGDQASISCRSSQSLVHSNGNTYLRWYLQKPGQSPKVLIYKVSNRFSGVPDRFSGSGSGTDFTLKISRVEAEDLGVYFCSQSTHVPWTFGGGTKLEIK [chain 1 G100K Y107V], the Kd with fluorescein was not below 10 µM. Also, the yeast surface expression in series [1] turned out to be 0.3.

With chain 1 EVKLDETGGGLVQPGRPMKLSCVASGFTFSDYWMNAVRQSPEKGLEWVAQIRNKPYNYETYYSDSVKGRFTISRDDSKSSVYLQMNNLRVEDMGIYYCTGSYYGMDYWGQGTSVTVS chain 2 DVVMTQTPLSLPVSLGDQASISCRSSQSLVHSNGNTYLRWYLQKPGQSPKVLIYKVSNRFSGVPDRFSGSGSGTDFTLKISRVEAEDLGVYFCSQSTHVPWTFGGGTKLEIK [chain 1 W36A], in the series with fluorescein, the Kd was not below 10 µM. The yeast surface expression in series [1] was 0.44.

With chain 1 EVKLDETGGGLVQPGRPMKLSCVASGFTMSDYPMNWVRQSPEKGLEWVAQIRNKPYNYETYYSDSVKGRFTISRDDSKSSVYLQMNNLRVEDMGIYYCTGSYYGMDYWGQGTSVTVS chain 2 DVVMTQTPLSLPVSLGDQASISCRSSQSLVHSNGNTYLRWYLQKPGQSPKVLIYKVSNRFSGVPDRFSGSGSGTDFTLKISRVEAEDLGVYFCSQSTHVPWTFGGGTKLEIK [chain 1 F29M W33P], in the series with fluorescein, the Kd was not below 10 µM. Further, the yeast surface expression in series [1] worked out at 0.639.

For the variant chain 1 EVKLDETGGGLVQPGRPMKLSCVASGFTFSDYWMNWVRQSPEKGLEWVAQIRNKPYNYETYYSDSVKGRFTISRDDSKSSVYLQMNNLRVEDMGIYYCTQSYYGMDYRGQGTSVTVS chain 2 DVVMTQTPLSLPVSLGDQASISCRSSQSLVHSNGNTYLRWYLQKPGQSPKVLIYKVSNRFSGVPDRFSGSGSGTDFTLKISRVEAEDLGVYFCSQSTHVPWTFGGGTKLEIK [chain 1 G100Q W108R], the Kd in the series with fluorescein was not below 10 µM. Also, in series [1], the yeast surface expression was determined as 0.232.

Consider chain 1 EVKLDETGGGLVQPGRPMKLSCVASGFTFSTYWMNWDRQSPEKGLEWVAQIRNKPYNYETYYSDSVKGRFTISRDDSKSSVYLQMNNLRVEDMGIYYCTGSYYGMDYWGQGTSVTVS chain 2 DVVMTQTPLSLPVSLGDQASISCRSSQSLVHSNGNTYLRWYLQKPGQSPKVLIYKVSNRFSGVPDRFSGSGSGTDFTLKISRVEAEDLGVYFCSQSTHVPWTFGGGTKLEIK [chain 1 D31T V37D], for which, in the series with fluorescein, the Kd was not below 10 µM. Besides, in series [1], the yeast surface expression stood at 0.511.

For chain 1 EVKLDETGGGLVQPGRPMKLSCVASGFTFSDYWMNWVRQSPEKGLEWVAQIRNKPYNYETYYSDSVKGRFTISRDDSKSSVYLQMNNLRVEDMGIYYCTGAPYGMDYWGQGTSVTVS chain 2 DVVMTQTPLSLPVSLGDQASISCRSSQSLVHSNGNTYLRWYLQKPGQSPKVLIYKVSNRFSGVPDRFSGSGSGTDFTLKISRVEAEDLGVYFCSQSTHVPWTFGGGTKLEIK [chain 1 S101A Y102P], in the series with fluorescein, the Kd is not below 10 µM. Besides, the yeast surface expression in series [1] stood at 0.793.

On to chain 1 EVKLDETGGGLVQPGRPMKLSCVASGFTFSDYWMNWVRQSPEKGLEWVAQIRNKPYNYETYYSDSVKGRFTISRDDSKSSVYLQMNNLRVEDMGIYYCTGSYYKMDYQGQGTSVTVS chain 2 DVVMTQTPLSLPVSLGDQASISCRSSQSLVHSNGNTYLRWYLQKPGQSPKVLIYKVSNRFSGVPDRFSGSGSGTDFTLKISRVEAEDLGVYFCSQSTHVPWTFGGGTKLEIK [chain 1 G104K W108Q], for which the Kd with fluorescein was not below 10 µM. Moreover, the yeast surface expression in series [1] worked out at 0.294.

The values above are taken from the FLAb antibody collection (doi:10.7554/elife.23156).
